B1: Arl15-AL-Myc [human] / GST-Smad4 [not stated] (parent)
chain 1: MSDLRITEAFLYMDYLCFRALCCKGPPPARPEYDLVCIGLTGSGKTSLLSKLCSESPDNVVSTTGFSIKAVPFQNAILNVKELGGLDNIRKYWSRYYQGSQGVIFVLDSASSEDDLEAARNELHSALQHPQLCTLPFLILANHQDKPAARSVQEIKKYFELEPLARGKRWILQPCSLDDMDALKDSFSQLINLLEEKDHEAVRM
chain 2: MDNMSITNTPTSNDACLSIVHSLMCHRQGGESETFAKRAIESLVKKLKEKKDELDSLITAITTNGAHPSKCVTIQRTLDGRLQVAGRKGFPHVIYARLWRWPDLHKNELKHVKYCQYAFDLKCDSVCVNPYHYERVVSPGIDLSGLTLQSNAPSSMMVKDEYVHDFEGQPSLSTEGHSIQTIQHPPSNRASTETYSTPALLAPSESNATSTANFPNIPVASTSQPASILGGSHSEGLLQIASGPQPGQQQNGFTGQPATYHHNSTTTWTGSRTAPYTPNLPHHQNGHLQHHPPMPPHPGHYWPVHNELAFQPPISNHPAPEYWCSIAYFEMDVQVGETFKVPSSCPIVTVDGYVDPSGGDRFCLGQLSNVHRTEAIERARLHIGKGVQLECKGEGDVWVRCLSDHAVFVQSYYLDREAGRAPGDAVHKIYPSAYIKVFDLRQCHRQMQQQAATAQAAAAAQAAAVAGNIPGPGSVGGIAPAISLSAAAGIGVDDLRRLCILRMSFVKGWGPDYPRQSIKETPCWIEIHLHRALQLLDEVLHTMPIADPQPLD

Variants of: B1
Test: GST pull-down, immunoblot band quantification
Details: with GST-Smad4; HeLa cell lysates; bead-immobilized GST-Smad4; parent: 100

Row | percent of parent | Variant
1 | 38 | chain 1 R95C
2 | 47 | chain 1 Y96F

Continued, variant first:

Row | Variant | percent of parent
3 | chain 1 E82K | 95
4 | chain 1 R90L | 22

From paper PMC9352346
